Results on one substance are retold here after FireProtDB (doi:10.1016/j.bpc.2007.01.002).

For this data set the following is noted: Equus caballus, Thermal, reversible: Yes.
[1] abbreviates: pH 3.8, DSC, Sodium acetate 50 mM, transition: 3.
Where [2] appears, read: pH 4.1, DSC, Sodium acetate 50 mM.
Where [3] appears, read: pH 4.1, DSC, Sodium acetate 50 mM, transition: 3.
The mark [4] stands for this setting: pH 4.5, DSC, Sodium acetate 50 mM.
[5] abbreviates: pH 5, DSC, Sodium acetate 50 mM.
Setting [6] is: pH 5, DSC, Sodium acetate 50 mM, transition: 3.

For orientation: Tm means the temperature at which the thermal transition is half complete.

Sequence of Cytochrome c wild type, P00004 (P00004 whole entry): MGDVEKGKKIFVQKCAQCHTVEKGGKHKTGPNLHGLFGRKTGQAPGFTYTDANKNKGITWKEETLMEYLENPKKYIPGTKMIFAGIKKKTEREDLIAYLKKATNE

On to Cytochrome c wild type, P00004, for which the Tm was 40 °C (pH 2.9, IATC, KCl 20 mM); 68 °C under setting [1]; 70 °C under setting [2]; 69 °C under setting [3]; 74.1 °C under setting [4]; 76.2 °C under setting [5]. For the same substance, under setting [6], the Tm is 73 °C. The “unfolding enthalpy (calorimetric)” value amounted to 68.8 kcal/mol (pH 2.9, IATC, KCl 20 mM); 33.7 kcal/mol under setting [1]; 112 kcal/mol under setting [2]; 33.7 kcal/mol under setting [3]; 119 kcal/mol under setting [4]; 124 kcal/mol under setting [5]. Moreover, the “unfolding enthalpy (calorimetric)” value under setting [6] was 37.5 kcal/mol. Besides, the “heat capacity change of unfolding” value was 1.34 kcal/mol/K under setting [2], 1.51 kcal/mol/K under setting [4] and 1.39 kcal/mol/K under setting [5].
